# Measured values from patent US9487561B2, “Biologically active complex and its preparation” (HAMLET PHARMA AB, priority 2010, dated 2016).
# What was measured:
# [1] = test system: lymphoma cells (Jurkat cells); assay: cell death assay with inhibitors; assay type: cell-based; details: HAMLET 21-35 μM, three hours
# Procedure: GAPDH was used as a loading control.
# (§1) Cells were detached from cell culture flasks with versen (0.2 g EDTA in 200 ml H2O and 800 ml PBS), washed with PBS and resuspended in serum-free RPMI-1640. HAMLET dissolved in PBS was incubated with cells (0.5×10^6/ml for A549, A498 and HeLa cells; 1×10^6/ml for Jurkat) at 37° C. FCS was added after 1 hour. Cell death was quantified by trypan blue exclusion (Chroma Gesellschaft Schmid & Co) or by measuring ATP levels (ATPlite Kit, PerkinElmer, Infinite 200, Tecan). Light images were captured using the HOLOMONITOR™ M2 digital holographic microscope (Phase Holographic Imaging AB, Lund, Sweden).
# (§2) For studies with inhibitors, cells were pretreated for 30 minutes. Inhibitors used were Gadolinium chloride (GdCl3, 100 μM), Barium chloride (BaCl2, 1 mM), Ruthenium red (30 μM), tetrandrine (10 μM) and amiloride (1 mM), all from Sigma Aldrich. For p38 inhibition, SB202190 (20 μM, Sigma Aldrich) or BIRB796 (10 μM, Axon Medchem) dissolved in DMSO was used. The wells were washed twice with PBS and new medium with inhibitor was added. For RNA interference, FlexiTube siRNA Premixes against MAPK11 (SI00606053), MAPK14 (SI00300769) and All Star Negative Control siRNA (SI03650318) from Qiagen was used. A549 forward was transfected using 25 nM final siRNA concentration in 24-well plate. After 48 hours, knockdown was examined by Western blot (anti-p38, 1:1000, Cell Signaling) and RT-PCR (MAPK14, QT00079345, QIAGEN).
# To examine if functional ion channels are important for the tumoricidal activity of HAMLET, A549 lung carcinoma cells in suspension were pretreated with the channel inhibitors for 30 minutes and exposed to increasing concentrations of HAMLET for three hours.
# (HeLa cells) = assay: cell death assay with ion channel inhibitors; assay type: cell-based; details: HAMLET 21-35 μM, three hours
# Procedure: as §1
# as §2, with “After 48 hours, knockdown was examined by Western blot (anti-p38, 1:1000, Cell Signaling) and RT-PCR (MAPK14, QT00079345, QIAGEN).” left out
# Jurkat cells = assay: sodium influx, CoroNa Green Sodium indicator; assay type: cell-based; details: 10-minute measurement period
# Procedure: Sodium influx in Jurkat cells was measured by using CoroNa Green Sodium indicator. The fluorescence was quantified every 20-second interval for a 10-minute total measurement period.
# [2] = test system: healthy, differentiated pediatric kidney cells; assay: extended microarray analysis (Illumina HumanHT-12); assay type: cell-based, human
# Procedure: (§3) For the extended microarray analysis, gene expression was assessed by whole genome Illumina microarrays (HumanHT-12 Expression BeadChip). Data was normalized using cross-correlation (Chua et al., 2006 Nucleic Acids Research 34: e38). Genes with a log 2 fold change ≧1.2 in tumor cells and ≧2.0 in healthy, differentiated cells at any time point were regarded as differentially expressed (Benjamini-Hochberg adjusted p-value <0.05).
# (§4) To examine the molecular basis of the difference in HAMLET susceptibility between carcinoma cells and healthy, differentiated cells, transcriptional profiles were compared. […] These cytokines were not secreted by the carcinoma cells.
# [3] = test system: kidney carcinoma (A498) cells; assay: extended microarray analysis (Illumina HumanHT-12); assay type: cell-based, human
# Procedure: as §3
# (§5) To identify the pathways that execute tumor cell death downstream of the ion channels, we further examined the global transcriptional responses to HAMLET in human lung carcinoma (A549) and kidney carcinoma (A498) cells over an extended period of 15 min to 24 hours. The p38 MAPK signaling pathway was identified as a top-scoring canonical pathway in A549 cells (FIG. 4A).
# as §4
# skin papillomas = details: topical administration, placebo controlled; cited from earlier work
# bladder cancer [4] = details: mouse, in vivo; cited from earlier work
# [5] = test system: p38, HSP27 in healthy, differentiated kidney cells; assay: MAPK phosphorylation in healthy cells; assay type: cell-based, human
# bladder cancer [6] = details: local instillations; cited from earlier work
# tumor cells = assay: Tumoricidal Activity of Oleate-HAMLET (cell death method of Example 1); assay type: cell-based; details: 0.5 mg/ml
# [7] = test system: human lung carcinoma (A549) cells; assay: extended microarray analysis (Illumina HumanHT-12); assay type: cell-based
# Procedure: as §3, §5
# [8] = test system: Human renal tubular epithelial cells (HRTEC); assay: Ca^2+ and K^+ levels in healthy, differentiated cells in primary culture; assay type: cell-based; details: HAMLET 35 μM
# Procedure: Human renal tubular epithelial cells (HRTEC) were preincubated with Fluo-4 as described, exposed to HAMLET (35 μM) and examined by real time confocal microscopy.
# To further characterize ion channel activation by HAMLET, carcinoma cells were pretreated with defined channel blockers. Amiloride is a sodium channel inhibitor with effects on mechanosensitive channels, barium chloride (BaCl2) is a general K^+ channel inhibitor, gadolinium chloride (GdCl3) inhibits mechanosensitive channels, Ruthenium red is a general Ca^2+ inhibitor and tetrandrine inhibits large conductance, Ca^2+ activated K^+ channels. The carcinoma cells were preincubated with Fluo-4 as described above, pretreated with each of the channel inhibitors for 30 minutes, exposed to HAMLET (35 μM) and examined by real time confocal imaging. Furthermore, cells treated with EGTA were compared to cells with intact extracellular Ca^2+ levels, to distinguish the early peak from the subsequent influx of Ca^2+ (FIG. 1B, Table in FIG. 8).
# glioblastoma xenograft = details: rat, in vivo; cited from earlier work
molecule,measurement,setting,value
"[Ba+2].[Cl-].[Cl-] [BaCl2, barium chloride]",rescue from HAMLET-induced cell death,[1],rescue effect
same,rescue from HAMLET-induced cell death,(HeLa cells),rescue effect
"NC(N)=NC(=O)c1nc(Cl)c(N)nc1N [amiloride, 3,5-diamino-6-chloro-N-(diaminomethylene)pyrazine-2-carboxamide]",rescue from HAMLET-induced cell death,[1],rescue effect
same,rescue from HAMLET-induced cell death,(HeLa cells),rescue effect
"CCCCCCCC/C=C\CCCCCCCC(=O)[O-].[Na+] [oleate, sodium oleate]",sodium influx (fluorescence signal),Jurkat cells,did not trigger a sodium flux
"HAMLET (protein, UniProt P00709 20-142, looked up, oleic acid complex) Alpha-lactalbumin: KQFTKCELSQLLKDIDGYGGIALPELICTMFHTSGYDTQAIVENNESTEYGLFQISNKLWCKSSQVPQSRNICDISCDKFLDDDITDDIMCAKKILDIKGIDYWLAHKALCTEKLEQWLCEKL",number of genes responding to HAMLET,[2],2064 genes
same,number of genes responding to HAMLET,[3],4424 genes
same,effect on skin papillomas,skin papillomas,removed or reduced the size of skin papillomas
same,therapeutic efficacy in bladder cancer,bladder cancer [4],Therapeutic efficacy
same,"phosphorylation of p38, its isoforms, or HSP27",[5],"no phosphorylation of p38, its isoforms, or HSP27"
same,death of tumor cells vs healthy tissue,bladder cancer [6],caused rapid death of tumor cells but not of healthy tissue surrounding the tumor
same,Trypan blue,tumor cells; Control 88,8
same,ATP Activity,tumor cells; Control 100,21%
same,DUSP1 upregulation,[7],1.34 log 2-fold change
same,DUSP10 upregulation,[7],1.98 log 2-fold change
same,number of genes with minimum log 2-fold change of 1.2 compared to PBS-treated control cells,[7]; adjusted p-value <0.05,Three hundred sixty-seven
same,Ca^2+ response in HRTECs,[8],weak and transient Ca^2+ response
same,duration of Ca^2+ response in HRTECs,[8],about 90 seconds
same,sodium influx (fluorescence signal),Jurkat cells,immediate increase of fluorescence signal
same,cell death in healthy brain tissue,glioblastoma xenograft,without evidence of cell death in healthy brain tissue
same,tumor progression and survival,glioblastoma xenograft,delayed tumor progression and led to increased survival
